Patent US20220177583A1
Residue numbers refer to the chain shown, from its start.

B1: AB13 (antibody, V domains shown)
VH: QVQLQQSGAELVRPGTSVKVSCKASGYAFSNYLIEWVKQRPGQGLEWIGVINPGSGGTNYNEKFKGKATMTADKSSSTAYMHLSNLTSEDSVVYFCARSYFGRSYPYTMDYWGQGTSVTVSS
VL: EIVLTQSPTTMAASPGEKITITCSASSSISSNYLHWYQQKPGFSPKLLIYRTSNLASGVPARFSGSGSGTSYSLTIGTMEAEDVATYYCQQGSSIPLTFGAGTKLELK
B2: AB14 (antibody, V domains shown)
VH: QVQLQQSGPELVRPGVSVKISCKGSGYTFTDYAMHWVKQSHAKSLEWIGVISTYSGNTNYNQKFQDKATMTVDKSSSTAYMALARLTSDDSAIYYCARRGDYSLYAMDYWGQGTSVTVSS
VL: DIVLTQSPASLAVSLGQRATISCKASQSVDYDGDNYVNWYQQKVGQPPKLLISAASNLESGIPARFSGSGSGTDFTLNIHPVEEEDAATYYCQQSNEDPFTFGSGTKLEIK
B3: AB17 (antibody, V domains shown)
VH: QVQLQQSGAELAKPGASVKMSCKASGYTFTGYWMHWVKQRPGQGLEWLGYINPSTGYTESNQKFKDKATLTADKSSTTAYMQLRSLTPEDSAVYYCAREGITTVLVDYWGQGTTLTVSS
VL: QIVLTQSPAIMSASLGERVTMTCTASSSVSSSYLHWYQQKPGSSPKLWIYSTSNLASGVPARFSGSGSGTSYSLTISSMEAEDAATYYCHQYHRSPPTFGAGTKLELK
B4: AB12 (antibody, V domains shown)
VH: EVKLMESGGDLVKPGGSLKLSCAASGFTFSSYAMSWVRQTPEKRLEWVASIRSGGTTYYPDSVKGRFTISRDNARNILYLRMSSLRSEDTAIYYCAKVGGNPYPMDYWGQGTSVTVSS
VL: DIQMIQSPSSMFASLGDRVSLSCRASQDIGGNLDWYQQKPGGTIKLLIYSTSNLNSGVPSRFSGSGSGSDYSLTITSLESEDFADYYCLQRNAYPLTFGAGTKLELK
B5: AB9 (antibody, V domains shown)
VH: EVQLQQSGPELVKPGASVKMSCKASGYRFTDYNMHWVKQSHGKSLEWIGYINPNNGGTNYNQNFKGKATLTVNKSSSTAYMELRSLTSEDSAAYYCARDYLYFFDCWGQGTTLTVSS
VL: DIQMTQSPASQSASLGESVTITCLASQTIGTWLAWYQQKPGKSPQLLIYAAASLADGVPSRFSGSGSGTRFSFKISSLQAEDFVSYYCQQLYSIPRTFGGGTKLEIK
B6: AB18 (antibody, V domains shown)
VH: QVQLKQSGPELEKPGASVKISCKASGYSFTGYNMNWVKQSNGKSLEWIGNIDPYYGGSTYNQKFTGKATLTVDKSSSTAYMQLKSLTSEDSAVYYCARERSGYVFSAMDYWGQGTSVTVSS
VL: NIMMTQSPSSLAVSAGEKVTMSCKSSQSVLFSSNQKNYLAWYQQKPGQSPRLLIYWASTRESGVPDRFTGSGSGTDFTLTISNVQAEDLAVYYCHQYLSSRTFGAGTKLELK
B7: AB19 (antibody, V domains shown)
VH: EVQLQQSGPELVKPGGSMKISCKASGYSFTGYTMNWVKRSHGKNLEWIGLINPYNGVTTYNQNFKGKATLAVDKSSSTAYMELLGLTSEDSAVYYCTRDPLYYGYRDSTMDYWGQGTSVTVSS
VL: B6 VL
B8: AB10 (antibody, V domains shown)
VH: QIQLVQSGPALKKPGETVKISCKASGYTFTDYSMHWIKQAPGKGLKWMGWISTETGEPTYADGFKGRFDFSLETSADTAYLSINNLTNEDTATYFCTRGLWSSFAYWGQGTLVTVSA
VL: DVVMTQTPLSLPVSLGDQASISCRASQSLVHSNGNTYLHWFLQKPGQSPKLLIYKVSNRFSGVPDRFSGSGSRTDFTLKISRVEAEDLGVYFCSQITHVPYTFGGGTKLEIK
B9: AB11 (antibody, V domains shown)
VH: DVQLVESGGGLVQPRGSRKLSCAASGFTFSSFGMHWVRQAPEKGLEWVAYISSDSRTIYYADTVKGRFTISRDNPTNTLFLQMTSLRSEDTAMYYCARDYGRTYEAYWGQGTLVTVSA
VL: DIVLTQSPASLAVSLGQRATISCRASKSVSTSGYSYIHWYQQKPGQPPKLLIYLASNLESGVPARFSGSGSGTDFTLNIHPVEEEDAATYYCQHSRELPLTFGAGTKLELK
B10: AB15 (antibody, V domains shown)
VH: B9 VH
VL: B6 VL
B11: AB4-chim (antibody, V domains shown)
VH: QVQLQQSGAELARPGASVKMSCKASGYTFTSYTMHWIKQRPGQGQEWIGYINPSSTYTHYIKKFKDKATLTADKSSSTAYMQLRSLTSEDSAVYYCSRGELGGFAYWGQGTLVTVSA
VL: B8 VL with A25S, N33D, H39N, F41Y, R73G, S81R, I96S
B12: AB3-7 (antibody, V domains shown)
VH: EVQLLESGGGLVQPGGSMRLSCAASGFTFSNYWMNWVRQAPGKGLEWVAQIRLKSDNYATHYADSVKGRFTISRDDSKNTVYLQMNSLRAEDTGVYYCNDGPPSGSWGQGTLLTVSS
VL: DIQMTQSPSSLSASVGDRVTITCRISENIYSYLAWYQQKPGKAPKLLVYNAKILVEGVPSRFSGSGSGTDFTLTISSLQPEDFGTYYCQHHYTVPWTFGQGTKLEIK
B13: AB1-11 scFv (scFv)
scFv: DIQLTQSPSSLSASVGDRVTMTCTASSSVSSTYFHWYQQKPGKAPKLWIYSTSNLASGVPSRFSGSGSGTDYTLTISSMQPEDAATYYCHQYHRSPLTFGQGTKLEIKGGGGSGGGGSGGGGSQVQLVQSGAEVKKPGASVKMSCKASGYTFTTYTMHWVRQAPGQGLEWIGFINPSSGYTDYAQKFQGRVTLTADKSTSTVYMELSSLRSEDTAVYYCANGDYYVAYWGQGTLVTVSS
B14: AB3-7 scFv (scFv)
scFv: DIQMTQSPSSLSASVGDRVTITCRISENIYSYLAWYQQKPGKAPKLLVYNAKILVEGVPSRFSGSGSGTDFTLTISSLQPEDFGTYYCQHHYTVPWTFGQGTKLEIKGGGGSGGGGSGGGGSEVQLLESGGGLVQPGGSMRLSCAASGFTFSNYWMNWVRQAPGKGLEWVAQIRLKSDNYATHYADSVKGRFTISRDDSKNTVYLQMNSLRAEDTGVYYCNDGPPSGSWGQGTLLTVSS
B15: AB3-7 conjugated to MC-VC-PAB-MMAE (conventional) (antibody, V domains shown)
VH: B12 VH
VL: B12 VL
modifications: MC-VC-PAB-MMAE conjugated to the antibody, heterogeneous (conventional); sites not stated
B16: AB3-7 conjugated to MC-GGFG-DXD (antibody, V domains shown)
VH: B12 VH
VL: B12 VL
modifications: MC-GGFG-DXD conjugated to the antibody; sites not stated
B17: AB3-7 conjugated to MC-VC-PAB-MMAE (D4 technology) (antibody, V domains shown)
VH: B12 VH
VL: B12 VL
modifications: MC-VC-PAB-MMAE conjugated to the antibody, substantially 4 drugs per antibody (D4); sites not stated
B18: AB3-7 conjugated to MC-GGFG-MMAE (D4 technology) (antibody, V domains shown)
VH: B12 VH
VL: B12 VL
modifications: MC-GGFG-MMAE conjugated to the antibody (D4); sites not stated
B19: AB3-7 conjugated to CL2A-SN38 (D4 technology) (antibody, V domains shown)
VH: B12 VH
VL: B12 VL
modifications: CL2A-SN38 conjugated to the antibody (D4); sites not stated
B20: AB3-7 conjugated to CL2A-SN38 (conventional) (antibody, V domains shown)
VH: B12 VH
VL: B12 VL
modifications: CL2A-SN38 conjugated to the antibody, heterogeneous (conventional); sites not stated
B21: AB3-7 conjugated to MC-VC-PAB-DXD (antibody, V domains shown)
VH: B12 VH
VL: B12 VL
modifications: MC-VC-PAB-DXD conjugated to the antibody; sites not stated

The binders below were run against CLDN3/4 endogenously expressed on LS513 and MCF7 cells (assay: FACS dose curve, labelled mAb, LS513 cells).

| EC50 | Binder |
| --- | --- |
| 1590 nM | B1 |
| 1160 nM | B2 |
| 5000 nM | B3 |
| 2270 nM | B4 |
| 1040 nM | B5 |
| 5000 nM | B6 |
| 5000 nM | B7 |
| 1950 nM | B8 |
| 493 nM | B9 |
| 5000 nM | B10 |

These binders were tested against human CLDN6 fused to GFP, expressed on engineered HEK293T cells (human) (UniProt P56747) (assay: FACS dose curve, labelled mAb, HEK293T-CLDN6-mGFP cells).

| EC50 | Binder |
| --- | --- |
| 5000 nM | B1 |
| 5000 nM | B2 |
| 2650 nM | B3 |
| 5000 nM | B4 |
| 2670 nM | B5 |
| 5000 nM | B6 |
| 5000 nM | B7 |
| 2760 nM | B8 |
| 1700 nM | B9 |
| 5000 nM | B10 |

What follows are binders tested against human CLDN6 fused to GFP, expressed on engineered HEK293T cells (human) (UniProt P56747) (assay: FACS, 293T clone with human CLDN6, 1.5 ug Ab).

| FACS signal | Binder |
| --- | --- |
| 327000 | B11 |
| 169000 | B12 |

These binders were tested against human CLDN6 fused to GFP, expressed on engineered HEK293T cells (human) (UniProt P56747) (assay: FACS on 293T CLDN6 mGFP Clone A11 cells, scFv followed by secondary antibody; number from the data table under the bars).

| Binder | FL4H Singlets in Viable cells |
| --- | --- |
| B13 | 125000 |
| B14 | 132000 |

The binders below were run against human CLDN6 fused to GFP, expressed on engineered HEK293T cells (human) (UniProt P56747) (assay: KinExA 4000, cell-based equilibrium titration; Cell Model HEK293T CLDN6-mGFP A11, Cells Detached by Versene; Equilibrium Curves 500pM, 10nM).

| Kd | Binder |
| --- | --- |
| 6.68 nM | B15 |
| 3.01 nM | B16 |
| 5.34 nM | B17 |
| 1.01 nM | B18 |
| 2.87 nM | B19 |
| 1.13 nM | B12 |
| 1.91 nM | B20 |
| 3.42 nM | B21 |

Each binder was assayed against T1, mouse CLDN6 fused to GFP, expressed on engineered HEK293T cells (mouse) (UniProt Q9Z262) (assay: FACS, 293T clone with mouse CLDN6).
T1 sequence (looked up): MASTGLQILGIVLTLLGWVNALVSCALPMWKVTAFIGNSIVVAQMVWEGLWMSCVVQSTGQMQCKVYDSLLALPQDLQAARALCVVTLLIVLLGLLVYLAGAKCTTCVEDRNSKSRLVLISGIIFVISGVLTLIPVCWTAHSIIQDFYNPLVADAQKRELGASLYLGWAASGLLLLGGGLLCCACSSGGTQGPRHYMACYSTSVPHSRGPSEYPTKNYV

| FACS signal | Binder |
| --- | --- |
| 3640 | B11 |

What follows are binders tested against CLDN3/4 endogenously expressed on LS513 and MCF7 cells (assay: FACS dose curve, labelled mAb, MCF7 cells).

| EC50 | Binder |
| --- | --- |
| 5000 nM | B1 |
| 546 nM | B2 |
| 5000 nM | B3 |
| 5000 nM | B4 |
| 5000 nM | B5 |
| 5000 nM | B6 |
| 5000 nM | B7 |
| 5000 nM | B8 |
| 427 nM | B9 |
| 5000 nM | B10 |

These binders were tested against human CLDN6 fused to GFP, expressed on engineered HEK293T cells (human) (UniProt P56747) (assay: FACS, 293T clone with human CLDN6, 0.3 ug Ab).

| FACS signal | Binder |
| --- | --- |
| 176000 | B11 |
| 106000 | B12 |
